The values that follow come from article PMC10943695, “Neutrophil elastase as a versatile cleavage enzyme for activation of αvβ3 integrin-targeted small molecule drug conjugates with different payload classes in the tumor microenvironment” (Frontiers in Pharmacology, 2024).

The AUC(0-inf) is total exposure, with the tail of the curve extrapolated. A higher AUC(0-inf) goes with more exposure. A word on the half-life: it is the time needed for the level to fall by half in the phase considered. For orientation: IC50 means the midpoint of a concentration-inhibition curve.

SMILES strings stand for the structures. Entries after “also recorded” stand apart in the source; their conditions may differ. Where two headings read alike, the source gives them in different places.

Series [1] has as its system NCI H69 SCLC xenograft. Put plainly: In vivo efficacy in NCI H69 SCLC xenograft model. Further details: species or system mice. The conditions noted are these: NCI H69 model, QWx2 (4: 5 mg/kg; 6: 40 mg/kg). How it is done: For the NCI H69 study, immunocompromised mice were inoculated subcutaneously with 1.3 × 10^6 NCI H69 cells in 50% Matrigel/50% Media on day 0. Treatment was started at a mean tumor area in the range of […] in the NCI H69 model (n = 8/group, compound 4 at 5 mg/kg i. v., QW, and compound 6 at 40 mg/kg i. v., QW). In an independent experiment in the same CDX xenograft model compound 3 was tested at 10 mg/kg i. v., QW.

Series [2] can be described thus: Intravenous pharmacokinetics in rat. The format is in vivo. The conditions noted are these: male Wistar rats, 0.5 mg/kg SMDC i.v., plasma; for AUC(0-inf) / half-life / clearance / Vd: rat, iv; for clearance: read-out: CLp; for Vd: read-out: Vss. How it is done: Pharmacokinetic properties of SMDCs and their respective payloads were characterized in rats. Briefly, male Wistar rats (n = 3) were given a 0.5 mg/kg dose of SMDC formulated in plasma/DMSO (99:1) intravenously (i.v.) via tail vein. Blood was collected at pre-dose, 2, 5, 15, 30, 45, 60 min, 2, 4, 7, 24 h post-dose and then processed to plasma. Plasma was frozen at < −20°C until sample analysis. Plasma samples were analyzed for concentrations of SMDCs and their respective released payloads by LC-MS/MS.
Pharmacokinetics of SMDCs and their respective payloads from in vivo studies were determined using mean concentration-time profiles. All pharmacokinetic parameters were calculated by non-compartmental methods as previously described ([Perrier and Gibaldi, 1982]).

The nature of series [3]: Stability in human plasma. The format is in vitro ADME. The conditions noted are these: 37 °C.
Series [4] can be described thus: Stability in rat plasma. The format is in vitro ADME. To be noted: 37 °C. How it is done:
The SMDC compounds 2, 3, 4, 5 and 6 (1 mg) were dissolved in acetonitrile/DMSO (1:1, 0.5 mL). While vortexing, 20 µL of this solution was added to 1 mL rat plasma at 37 °C. The incubation was stopped at respective time intervals by adding acetonitrile/buffer pH 3 (80:20) and the test compounds and formation of degradation products were analyzed by LC and LC/MS.

A short description of series [5]: Hydrolytic stability in PBS buffer at pH 7.4. Format: physicochemical. The conditions noted are these: PBS pH 7.4, 37 °C, 24 h. How it is done:
For hydrolytic stability measurement, compounds 2, 3, 4, 5 and 6 (0.15 mg) were dissolved in acetonitrile/DMSO (4:1, 0.5 mL) and 1 mL of PBS buffer at pH 7.4 was then added. The sample solution was analyzed by HPLC to determine the amount of the test compound and the formation of degradation products over a period of 24 h at 37 °C.

For series [6], the system named is SUM149PT (human IBC) cells. In words: In vitro cytotoxicity, MTT assay, in absence or presence of neutrophil elastase. Format: cell-based. The conditions noted are these: 72 h exposure. How it is done:
(§1) 786-O (human RCC), HT-29 (human CRC), NCI-H292 (human NSCLC), NCI-H69 (human SCLC), MX-1 (human TNBC), and SUM149PT (human IBC) cells were acquired from ATCC and cultured according to the provider’s instructions.
(§2) The in vitro cytotoxicity of the SMDCs in comparison to the respective payloads was tested in a panel of cancer cell lines after a 72 h continuous exposure in presence or absence of 20 nM neutrophil elastase using MTT assays (ATCC). IC50 values were determined as the concentration of compound required for 50% inhibition of cell viability.
(In general: Formazan colour is commonly taken as a measure of viable cells.)

Series [7] deals with NCI-H292 (human NSCLC) cells. Described as above. The format is cell-based. To be noted: 72 h exposure. How it is done:
as §1, §2

Series [8] has as its system HT-29 (human CRC) cells. Described as above. Format: cell-based. The conditions noted are these: 72 h exposure. How it is done:
as §1, §2

Series [9] concerns 786-O (human RCC) cells. The description is as above. The format is cell-based. The conditions noted are these: 72 h exposure. How it is done: as §1, §2
Where [10] appears, read: with 20 nM neutrophil elastase, read-out: IC50 SUM149 PT + neutrophil elastase.
Setting [11] is: with 20 nM neutrophil elastase, read-out: IC50 NCI-H292 + neutrophil elastase.
[12] abbreviates: with 20 nM neutrophil elastase, read-out: IC50 HT29 + neutrophil elastase.
The mark [13] stands for this setting: with 20 nM neutrophil elastase, read-out: IC50 786–0 + neutrophil elastase.

In the case of `CCCNC(=O)Nc1cccc(S(=O)(=O)Nc2cccc([C@@H](CC(=O)O)NC(=O)Nc3ccc(NC(=O)NCCOCCOCCOCCC(=O)N[C@@H](CC(=O)O)C(=O)N4CCC[C@H]4C(=O)N[C@H](C(=O)O[C@@H](c4ccccc4)[C@@H](C)NC(=O)[C@H](C)[C@@H](OC)[C@@H]4CCCN4C(=O)C[C@@H](OC)[C@H]([C@@H](C)CC)N(C)C(=O)[C@@H](NC(=O)[C@@H](NC)C(C)C)C(C)C)C(C)C)cc3)c2)c1` [Compound 4], in series [1], the Body weight changes entry is “very minor”. The AUC(0-inf) in series [2] is 3.03 ± 0.11 µM·h. The molecule also had a half-life in series [2] of 2.3 ± 0.95 h. The clearance in [2] is 1.47 ± 0.06 mL/min/kg. Also, the Vd in [2] turned out to be 0.157 ± 0.015 L/kg. Moreover, in series [3], the “Stability in human plasma” value is reported as “highly stable”. In addition, the “Stability in rat plasma” value in [4] was “highly stable”. Moreover, the “Stability in buffer pH 7.4” value in [5] was “highly stable”. Besides, the IC50 in series [6] (setting [10]) is 0.51 nM; in series [6] (without neutrophil elastase, read-out: IC50 SUM149PT), 50 nM; in [7] (setting [11]), 0.35 nM; in series [7] (without neutrophil elastase, read-out: IC50 NCI-H292) it was 71 nM; in series [8] (setting [12]) it was 0.43 nM; in series [8] (without neutrophil elastase, read-out: IC50 HT29), 78 nM. Further, the IC50 in series [9] (setting [13]) was determined as 6.6 nM; in series [9] (without neutrophil elastase, read-out: IC50 786–0), 660 nM.
For the molecule `CCCNC(=O)Nc1cccc(S(=O)(=O)Nc2cccc([C@@H](CC(=O)O)NC(=O)Nc3ccc(NC(=O)NCCOCCOCCOCCC(=O)N[C@@H](CC(=O)O)C(=O)N4CCC[C@H]4C(=O)N[C@H](C(=O)N[C@@H](CCN(C(=O)CO)[C@@H](c4cc(-c5cc(F)ccc5F)cn4Cc4ccccc4)C(C)(C)C)C(=O)NC)C(C)C)cc3)c2)c1` [Compound 6], in series [1], the Body weight changes result is on record as “very minor”. Also, in series [2], the Vss entry is “comparable to plasma volume”, the AUC(0-inf) was 2.98 ± 0.25 µM·h, the half-life was 0.442 ± 0.023 h and the clearance was found to be 1.69 ± 0.15 mL/min/kg. In addition, the Vd in series [2] turned out to be 0.0377 ± 0.005 L/kg. The “Stability in human plasma” value in [3] is “highly stable”. Also, in series [4], the “Stability in rat plasma” value is “highly stable”. Besides, the “Stability in buffer pH 7.4” value in series [5] is “Very small fractions of a degradation product; also recorded: highly stable”. The IC50 in [6] (setting [10]) stood at 0.6 nM. In series [7] (setting [11]), the IC50 was 1.3 nM. For the same molecule, the IC50 in [8] (setting [12]) worked out at 1.7 nM. The IC50 in series [9] (setting [13]) worked out at 8.7 nM.
